The source of these data is patent US20220306764A1 (NATIONAL INSTITUTE OF BIOTECHNOLOGY IN THE NEGEV, published 2022).

Where a chain is given by its changes, count along the chain named.

The test has as its target T1, purified extracellular domain of PSMA (prostate-specific membrane antigen), residues 44-750 (UniProt Q04609 44-750).
T1 construct: range 44-750; The limits 44-750 are stated for the immunogen; Docking used PDB 1Z8L; also called soluble PSMA; monomeric PSMA
The experiment in a line: SPR (ProteOn XPR36), NB immobilised, soluble PSMA as analyte, 1:1 Langmuir, 25 C. How it is done: The bottom curve in each sensogram represents the lowest concentration, while the top curve represents the highest concentration. A FACS analysis (n=3) was used to determine the binding of these NBs (0.1-1,000 nM) to PC3-PIP (PSMA⁺) cells (1E) and to PC3-flu (PSMA⁻) cells (1F). For convenience, each fluorescence value was normalized to the fluorescence values at the highest and lowest concentrations of PC3-PIP cells.
The affinity of each NB to PSMA was determined by using surface plasmon resonance (SPR) spectroscopy on a ProteOn XPR36 chip (Bio-Rad, CA). The chip was activated by using sulfo-NHS (0.1 M N-hydroxysuccinimide) and EDC [0.4 M 1-ethyl-3-(3-dimethylaminopropyl)-carbodiimide]. Each NB (0.2 μg) was immobilized in a 10 mM sodium acetate buffer, pH 5.0, at a flow rate of 30 μl/min. Bovine serum albumin (BSA) (3 μg) was immobilized on the chip as a negative control. Unbound esters were deactivated with 1 M ethanolamine HCl at pH 8.5. […] During this time, the association between the NBs and PSMA was measured. The dissociation was measured while flowing 50 μ1/min PBST (namely, a phosphate-buffered saline with 0.005% Tween). For each protein complex, a binding sensogram was generated by subtracting the values of the PSMA response to BSA from those of the PSMA response to the NBs. The dissociation constant (KD) was determined from the Langmuir 1:1 kinetic model. The temperature throughout the binding measurements was set at 25° C.

T1 sequence (Q04609 44-750 limits assumed): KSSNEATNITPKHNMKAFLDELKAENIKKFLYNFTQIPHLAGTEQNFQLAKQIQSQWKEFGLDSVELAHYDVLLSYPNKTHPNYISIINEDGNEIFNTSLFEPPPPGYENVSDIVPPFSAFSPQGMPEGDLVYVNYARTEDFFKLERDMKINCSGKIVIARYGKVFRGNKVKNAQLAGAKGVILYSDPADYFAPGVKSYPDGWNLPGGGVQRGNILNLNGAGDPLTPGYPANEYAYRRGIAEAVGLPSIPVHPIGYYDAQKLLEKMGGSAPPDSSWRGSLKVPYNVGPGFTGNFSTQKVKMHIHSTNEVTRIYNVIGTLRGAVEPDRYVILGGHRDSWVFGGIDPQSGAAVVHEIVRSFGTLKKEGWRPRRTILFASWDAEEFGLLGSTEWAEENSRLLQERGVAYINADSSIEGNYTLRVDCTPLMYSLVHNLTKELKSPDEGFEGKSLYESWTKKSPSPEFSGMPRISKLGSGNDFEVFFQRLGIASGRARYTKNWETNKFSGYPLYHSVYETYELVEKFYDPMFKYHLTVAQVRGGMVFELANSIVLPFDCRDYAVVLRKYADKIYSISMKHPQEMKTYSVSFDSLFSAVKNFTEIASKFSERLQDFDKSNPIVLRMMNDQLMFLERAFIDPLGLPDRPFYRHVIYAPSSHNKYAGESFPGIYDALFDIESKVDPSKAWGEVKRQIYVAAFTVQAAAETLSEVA

B1: NB8 (VHH)
VHH: QVQLQESGGGSVQAGGSLRLSCARSGWPYSTYSMNWFRQAPGKEREAVAGISSTMSGIIFAESKAGQFTISQDNAKNTVYLQMNNLKPEDTAIYYCAARRDYSLSSSSDDFDYWGQGTQVTVSS
notes: also called nanobody 8; PDB 6XXO; not shown: His tag (NBs purified on Ni-NTA and detected with anti-His)
Turning to B1, the Kd (usually the concentration at which binding is half-saturated) came to 6 nM; the koff (as a rule, the rate constant with which the complex falls apart) worked out at 0.00012 s⁻¹; the kon (commonly the rate constant with which the complex forms) came to 20000 M⁻¹ s⁻¹.

B2: NB37 (VHH)
VHH: B1 VHH with Q13E
notes: also called nanobody 37; PDB 6XXP; not shown: His tag (NBs purified on Ni-NTA and detected with anti-His)
Molecule B2 came in with a Kd of 3.4 nM, a koff of 7.5e-05 s⁻¹ and a kon of 22000 M⁻¹ s⁻¹.

B3: NB13 (VHH)
VHH: QVQLQESGGGSVQTGGSLRLSCAASGYTASFSWIGYFRQAPGKEREGVAVINVGVGSTYYADSVKGRFTISRDNTENTISLEMNSLKPEDTGLYYCAGSLRWSRPPNPISEDAYNYWGQGTQVTVSS
notes: also called nanobody 13; not shown: His tag (NBs purified on Ni-NTA and detected with anti-His)
B3 yielded a Kd of 0.6 nM, an off-rate constant (koff) of 2.2e-05 s⁻¹ and a kon of 36000 M⁻¹ s⁻¹.

B4: NB7 (VHH)
VHH: QVQLQESGGGSVQAGGSLRLSCTAPGYTDSNYYMSWFRQAPGKEREWVAGVNTGRGSTSYADSVKGRFTISQDNAKNTMFLQMNSLKPEDTAIYYCAVAACHFCDSLPKTQDEYILWGQGTQVTVSS
notes: also called nanobody 7; anti-PSMA NB7; not shown: His tag (NBs purified on Ni-NTA and detected with anti-His)
As for B4, the Kd amounted to 0.055 nM, the koff came out at 3.9e-05 s⁻¹ and the kon is 710000 M⁻¹ s⁻¹.
